From the DeepSol protein solubility set

Test: soluble on expression in E. coli; label from the status in PepcDB or PDB records

| Sequence | soluble on expression in E. coli |
| --- | --- |
| MKLYNLKDHNEQVSFAQAVTQGLGKQQGLFFPHDLPEFSLTEIDEMLNQDFVSRSAKILSAFIGDEIPQQILEERVRAAFAFPAPVAQVESDVGCLELFHGPTLAFKDFGGRFMAQMLTHISGDKPVTILTATSGDTGAAVAHAFYGLENVRVVILYPRGKISPLQEKLFCTLGGNIETVAIDGDFDACQALVKQAFDDEELKTALGLNSANSINISRLLAQICYYFEAVAQLPQGARNQLVISVPSGNFGDLTAGLLAKSLGLPVKRFIAATNVNDTVPRFLHDGKWAPKATQATLSNAMDVSQPNNWPRVEELFRRKIWRLTELGYAAVDDTTTQQTMRELKAKGYISEPHAAVAYRALRDQLNPGEYGLFLGTAHPAKFKESVESILGETLALPEALAERADLPLLSHHLPADFAALRKLMMTRQ | not soluble |
| MGSDKIHHHHHHMISNEQYDYLRAHPTFERLTRDSFDQLAKHIRFRKIPKGQIFFYAEDPRDYLFVLYKGYARIEQYDETDSFTYLDYIRQGGAFPFGDMFQDKPYHYTAIAITDLEYFIVPMVLFETLSKINPSQMVYICQKLSKVLRFQELRLRNAMRSKASDRVVQALALLYWDMCQRDQFATLPFEIHIQEISRLAATTRETVSHVLKQLKQDGKIAYSHKQLTYLDIDYFLENLTETH | not soluble |
| MEYLFLRRKKTSSTSVRQKTLLYRAAGREWTARFSSLSDVRPADSLIYKGILYQLEIRRAFLDSSLSLKKLSMMLETNQTYLSNAVNRYFGCHLKELLNRYRVEYAKELLRNGGCPLGEVPSRSGFGSKSPFYLAFVRQTGMTPKRYAARERNLVNLEIENEVLL | not soluble |
| GACEQNEDWVVNEPMQSFEENPEYAPLNTIPDWVSEKVTPKEYELWRTMSSRYEINYSFLKKDISEKRKKEIYDCINNICERIEKGQINKYEGFLNIADEDGTTLSDSQYFGRIATRSPEGGAEYKTNGCTLYTHSLGPYIKAAVTYKKSDDDVTITSSSVYTGSPYLGNDPSFSGASSVSYDKDKKLIAASCSGTLSFKDGSRKVEVTVQKTGFMIP | soluble |
| MKIGIVIPAHNEEQHLSACLQSIQQAIQHTGHEQVEILVVLDSCTDQSRSVVESHQVNWIECNFACVGKARDLGIRQLIDQGVIWVACTDADTIVDSDWILCQMLHQPTDAICGVVTLDDLSHLSVQQQQKYLAHYQDSMDHQHIHGANLSFSAEAYIQAGGFEPIPCHEDVSLIEKFIKQCCKVTRSNLEHHHHHH | not soluble |
| STSTNNELTVSMMGTSTKEEVVSKVDEEDDDSSSDSDMDYGSDSEWAGYNVLAETEPEWDVDSFDGHEFKINPRVRQMYRSQELYDKYYNNRLKAFENKGFLSDHLNGIYDVYLDEKMDGYNSTRDFMAELANVCVKKHNETKGNTLELVNVVRATERGAATWRLYITFMAREFPDGPLVEYQAKVIKFLGVKDPFPVLCRAAPKPGI | soluble |
| MIITTTNGIEGKRVVEYKGIVCGEVISGVDFIKDFAAGLTNFFGGRSKSYEGELIEAREGAIREMKERAIQMGANAIIGVDIDYEVLGQGGNMLMVTASGTAVVIE | soluble |
| MAKKNNKTKIQKPEAALQTDVAQITATGRVIAEHPSNFITPQKMRALFEDAESGDIRAQHELFADIEERDSDIAANMGTRKRALLTLNWRVAPPRNATPEEEKLSDQAYEMMDSLPTLEDLIMDLMDAVGHGFSALEVEWVFSDGLYLPRNFIHRPQSWFKWDKDNGLLLRTRENPEGEALWPLGWVVHTQKSRSVQQARNGLFRTLSWLYMFKHYAVHDFAEFLELYGMPIRIGKYGAGATKEEKNTLLRAVAEIGHNAAGIMPEGMEIELHNAANGTTATSNPFLQMADWCEKSAARLILGQTLTSGADGKSSTNALGNIHNEVRRDLLVSDAKQVAQTITSQIIGPFLQINYPHADPNRVPKFEFDTREPKDIAVFADAIPKLVDVGVQIPESWVRDKLVIPDVQEGEAVLVRQVPDNPVNRTALAALSAHTVPSKATGRHQEILDGALDDALVEPDFNSQLNPMVRQAVAALNACNSYEEADAALNALYPNLDNAKLRTYMQQALFISDILGQDHA | soluble |
| MGSDKIHHHHHHMSEEKNTAIDLKNLKAGGFIKERGKDLFTVRLRVPGGRLPVGRLKKIAEVAEKYGQGMVHLSVRQSVELININFRDFDAVVAELGEGTQKVASCGARVRVPTACGGCEYNPNGLVDTQKSALEVDEKLFGIPTGHHKFKVGFAGCPFDCPKSATNDVGFQGAVWPVLSADHCIGCGLCAKSCTEDAIAMGDNGKPLFIPANCLYCGDCLKVCPTEAWRAGKKGYTVRIGGKWGRRPLVGTLFAEFLPEDQVVDFIAAVLGWYQEKAEGQGRIRLGDVIRAQGPEALLARLRERFPAFVVNATIAPQAIATQVGKEKQAHDNR | not soluble |
| METKDLIVIGGGINGAGIAADAAGRGLSVLMLEAQDLACATSSASSKLIHGGLRYLEHYEFRLVSEALAEREVLLKMAPHIAFPMRFRLPHRPHLRPAWMIRIGLFMYDHLGKRTSLPGSTGVRFGADSVLKPEIVRGFEYSDCWVDDARLVLANAQMVVRKGGEVLTRTRATAARRENGLWIVEAEDIDTGKKYVWQARGLVNATGPWVKQFFDEGMHLPSPYGIRLIKGSHIVVPRVHNQKQAYILQNEDKRIVFVIPWMEEFSIIGTTDVEYKGDPKAVKIEESEINYLLKVYNAHFQKQLGRDDIVWTYSGVRPLCDDESDSPQAITRDYTLDIHDENGKAPLLSVFGGKLTTYRKLAEHAMEKLASYYPGIGPAWTKTCVLPGGDIDGSREDYAAKLRRRYPFLTESLARHYSRTYGSNTEWILGEATSLLDLGEDFGHEFYEAELKYLVDHEWVRRTEDAIWRRTKEGMWLTAEQQSRITQWLAAYVEKHQLSMAS | not soluble |
| MGSDKIHHHHHHMDAIVNTVNCVGVMGKGIALQFKNKWPANYSAYEAACKAKQVRPGTMFVFDSGGLVKPNYIINFPTKDHWRGKSRVEFIRDGLVDLVAQVKRLGIRSIAIPPLGCGNGGLEWDEVRPLIEQAFAVLPDVEVRLFAPAGAPDPKSMEVKTSRPKMTAGRAAILKVLDTYRSLEYGLSRIEVQKLAYFLQEAGESLSLSFVKNQYGPYSDQLRHALNRMEGHFIRGLGDGVVDAEIEPLEDALAEAEQYVSASGHAALARHVERVANLIEGFQTPYGMELLATVHWVATHEPTAHSFDQVVSAVHAWNERKARIMQPAHVRAAWSRLDAQGWL | not soluble |
| MSLARSMTTGRSGTIGVVVGDIENPFFSLAVRGITDVARQAGFTVILINSGEDAAAEKAAIRTLLAKRVDGLIVSPAKENDVEHLHEVIRSGLPLALLDRGSDTLEVDTVLADDRYTAENVTSRLIALGHRRIAYLTACDTPDHRFRTPQDISTGSVRRRIEGYLAVCREAGFIGMEDWVKVGAVTPERTHRIVIETLQSGHRPTAIIASDSIIGLEVFKAHRELGLNIPGDLSLVSFHDADWTSVTTPPVTVVRQPVYELGATAARLLVERLNGEDRAARKVVLKNEVVERASTRAIEGHHHHHH | soluble |
| MARTIPVLEIFGPTIQGEGMVIGQKTMFVRTAGCDYRCRWCDSAFTWDGSAKDEIEQLTADEIWRRLEAIGGRRFRHVTISGGNPLLIAALGELIALLHEKGMRVAVETQGSRWQDWLLDIDDVTLSPKPPSSGMDTDWSALDQIIERLQADQSRVRRISLKVVVFDDADLAYAKEVHCRYPGVPFYLQTGNADVADSDVDALRAKLLSRLEWLVEQAADSEELADVHILPQLHTLLWGNKRGV | not soluble |
| KKIKVYIELDLGGPITVGFPTHISDGISLLGSTNIFDDISEAYFTPKDEEILKRDPDIIIYEPKRLTDYEKERFYSILRKRDLFQLLNKRLIFTKGDYLAHMGPSFITDVLIWLKSVL | not soluble |
| MYLDFYGLHAHPFQLTPDPAFFFGANGHTRAKSYLMFGLSQGEGFVVVTGDVGAGKTTLLSHMLRSLSDRSIRVARLSTTQLSADDTARVVARAFGLAEPAHPSKGAWLEAIEVFLTQVRAAGERCVLIVDEVQNMGFAALEELRMLGNLGIDDGHSALQTILVGQPQFRNTLAGPSLDQLRQRIVASCHLGPIEPEEVGHYMRYRLTQAGWRGDPSFEEAVFPAVYRHSGGLPRRINILCSRLLLAGFLQERHDLRAQDVEEVAAELEAEAGEVIGVAGETRAGARLDGRFIDAGSLADLEERVLGIEERLRKVDLVVRRGLLNFSDFVSELNAVWKGRPLEHHHHHH | not soluble |
| MSLSFFFQSATVSDGELTGADLKDCISNNSLSSNASLPSVQSCRRLRERRVASWAVSFERLLQDPVGVRYFSDFLRKEFSEENILFWQACECFSHVPAHDKKELSYRAREIFSKFLCSKATTPVNIDSQAQLADDILNAPHPDMFKEQQLQIFNLMKFDSYTRFLKSQLYQECVLAEVEGRTLPDSQQVPSSPASKHSISSDHSNVSTPKKLSGKSKSGRSLNEDVGEEDSEKKRRGAFFSWSRSRSTGRSQKKKDHGDHAHDAPHANGGLCRRESQGSVSSAGSLDLSEACRTSALEKDKAAKHCCVHLPDGTSCVVAVKSGFSIKEILSGLCERHGINGAAVDLFLVGGDKPLVLHQDSSILATRDLRLEKRTLFRLDLVPINRSVGLKAKPTKPVTEVLRPVVAKYGLDLGSLLVRLSGEKEPLDLGAPISSLDGQRVILEERDPSRGKVSTDKQKGAPVKQNSAVNSSPRNHLAMGEERTLGKSNSIKIRGENGKSARDPRLSKREESIAKIGKKEYQKINLDEAEEFFELISKAQSNRADDQRGLLRKEDLVLPEFLRLPAGSSELALSSPPPVKGYSKRAVTGHGQEGAAQTEESYSDSPATSPASAQSPCSAYSPGSAHSPGSAHSTPGPPGTTQPGEKPTKPSCVSMVQEGTTQAWRRLSPGMEAGGIQTVEDEQVADLTLMGEGDISSPNSTLLPPPPTPQDTPGPPRPGTSRF | soluble |
| MGSDKIHHHHHHMMPYITDIAALEHVGVAAAWTEKVPAFRVLREKRMLDFRAPITVITGENGVGKSTLLEAIAINAGFDTAGGEHTGKFKPSDNPLQTVAKAHKGKEPMRGYFLRAETHFNVASGYRDEAPGWVNLHHMSHGESVMHIVQNAFVGKGLYLMDEPEAGLSFIRQMAILAELNFLAESGAQIIIVTHSPVLMAIPGAEIWEFSASGELHRGFDFEVTTAFRALRDFFEDPEEIAEYMMDVMMDNKGES | not soluble |
| MGDAPSPEEKLHLITRNLQEVLGEEKLKEILKERELKIYWGTATTGKPHVAYFVPMSKIADFLKAGCEVTILFADLHAYLDNMKAPWELLELRVSYYENVIKAMLESIGVPLEKLKFIKGTDYQLSKEYTLDVYRLSSVVTQHDSKKAGAEVVKQVEHPLLSGLLYPGLQALDEEYLKVDAQFGGIDQRKIFTFAEKYLPALGYSKRVHLMNPMVPGLTGSKMSSSEEESKIDLLDRKEDVKKKLKKAFCEPGNVENNGVLSFIKHVLFPLKSEFVILRDEKWGGNKTYTAYVDLEKDFAAEVVHPGDLKNSVEVALNKLLDPIREKFNTPALKKLASAAYPDPSKQKPMAKGPAKNSEPEEVILEHHHHHH | soluble |
| MAHHHHHHMPPLAQLCALALQYRCDLSQEIDQNIRSCFHSSRVPSISLWDYIRRFAKYSVCSEECFILAMVLMDRYVCKTQIPITLRNVHRLYITAMTLSVKLRDDSYYSNAYYASIGGVVNAELNVLELELLDIVQWFTWVEKSVYDAYVARLEALFGDAMPKLLVASPNK | not soluble |
| HISLNPDLANEDEVNSCDYWRHCAVDGFLCSCCGGTTTTCPPGSTPSPISWIGTCHNPHDGKDYLISYHDCCGKTACGRCQCNTQTRERPGYEFFLHNDVNWCMANENSTFHCTTSVLVGLAKN | soluble |
